This is an account of results in patent US20050042747A1, “Hivgp120-induced bob/gpr15 activation” (priority 2001, published 2005).

Test [1] concerns the target CXCR4 (UniProt P61073). The test can be described thus: quantitative cellular enzyme-linked assay on HT-29-D4 cells.
Test [2] has as its target GPR15/Bob (human) (UniProt P49685). The experiment in a line: cell-based or functional assay.
Test [3] has as its target CCR5 (UniProt P51681). The test can be described thus: cell-based or functional assay.

Sequence of GPR15/Bob (human) (P49685 whole entry): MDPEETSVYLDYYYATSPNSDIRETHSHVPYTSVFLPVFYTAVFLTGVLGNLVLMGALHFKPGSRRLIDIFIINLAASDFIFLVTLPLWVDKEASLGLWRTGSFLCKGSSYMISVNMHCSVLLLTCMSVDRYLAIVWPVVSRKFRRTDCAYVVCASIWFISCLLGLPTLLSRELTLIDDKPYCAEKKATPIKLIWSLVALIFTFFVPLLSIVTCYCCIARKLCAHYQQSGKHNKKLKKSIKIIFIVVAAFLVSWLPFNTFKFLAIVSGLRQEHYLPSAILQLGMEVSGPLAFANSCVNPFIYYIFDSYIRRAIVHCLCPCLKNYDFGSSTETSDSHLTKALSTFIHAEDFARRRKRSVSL

“anti-CXCR4 mouse monoclonal antibody (clone 12G5)” registered a concentration giving saturation binding in test [1] of 20 µg/mL. “gp120(IIIB), purified from HIV-1(IIIB) (from UniProt P03375 33-511) (ligand)” had a relative TEER 20 min after the addition of gp120, HT-29-D4 cells (relative TEER) in test [2] of 1.6. Same read-out and setting: with gp120(SEN) (ligand) the figure was 2.52. As to gp120CM235 (ligand), in test [2], the least gp120 concentration inducing calcium signaling, Bob-transfected Ghost (3) cells turned out to be 8 pM; the minimal concentration causing calcium signaling in HT-29 cells was determined as 2.5 nM; the minimal gp120 concentration giving a calcium flux, transfected Ghost (3) cells is 10 pM.

On to “gp120MN (from UniProt P05877 32-513) (ligand)”, for which the calcium signaling in HT-29 cells in test [2] is above 10 nM. “gp120SF2 (from UniProt P03378 32-509) (ligand)”: the calcium signaling in HT-29 cells in test [2] is above 10 nM. gp12093TH975 (ligand): the minimal gp120 concentration giving a calcium flux, transfected Ghost (3) cells in test [3] is 100 nM. Moreover, the calcium signaling in HT-29 cells in test [2] is above 10 nM.
